Drawing on patent US20190359662A1, this text covers pIC50, automated patch clamp and pIC50, membrane potential assay for 1 substance.

Among the targets are hNav1.9 (human) (UniProt Q9UI33); hNav1.4 (human) (UniProt P35499); hNav1.2 (human) (UniProt Q99250); hNav1.1 (human) (UniProt P35498); hNav1.7 (human) (UniProt Q15858); hNav1.5 (human) (UniProt Q14524); hNav1.6 (human) (UniProt Q9UQD0); hNav1.3 (human) (UniProt Q9NY46); hNav1.8 (human) (UniProt Q9Y5Y9).
What all share (experiment): cell-based or functional assay

Some results are limits rather than exact numbers.

Chain of hNav1.2 (human) (Q99250 whole entry): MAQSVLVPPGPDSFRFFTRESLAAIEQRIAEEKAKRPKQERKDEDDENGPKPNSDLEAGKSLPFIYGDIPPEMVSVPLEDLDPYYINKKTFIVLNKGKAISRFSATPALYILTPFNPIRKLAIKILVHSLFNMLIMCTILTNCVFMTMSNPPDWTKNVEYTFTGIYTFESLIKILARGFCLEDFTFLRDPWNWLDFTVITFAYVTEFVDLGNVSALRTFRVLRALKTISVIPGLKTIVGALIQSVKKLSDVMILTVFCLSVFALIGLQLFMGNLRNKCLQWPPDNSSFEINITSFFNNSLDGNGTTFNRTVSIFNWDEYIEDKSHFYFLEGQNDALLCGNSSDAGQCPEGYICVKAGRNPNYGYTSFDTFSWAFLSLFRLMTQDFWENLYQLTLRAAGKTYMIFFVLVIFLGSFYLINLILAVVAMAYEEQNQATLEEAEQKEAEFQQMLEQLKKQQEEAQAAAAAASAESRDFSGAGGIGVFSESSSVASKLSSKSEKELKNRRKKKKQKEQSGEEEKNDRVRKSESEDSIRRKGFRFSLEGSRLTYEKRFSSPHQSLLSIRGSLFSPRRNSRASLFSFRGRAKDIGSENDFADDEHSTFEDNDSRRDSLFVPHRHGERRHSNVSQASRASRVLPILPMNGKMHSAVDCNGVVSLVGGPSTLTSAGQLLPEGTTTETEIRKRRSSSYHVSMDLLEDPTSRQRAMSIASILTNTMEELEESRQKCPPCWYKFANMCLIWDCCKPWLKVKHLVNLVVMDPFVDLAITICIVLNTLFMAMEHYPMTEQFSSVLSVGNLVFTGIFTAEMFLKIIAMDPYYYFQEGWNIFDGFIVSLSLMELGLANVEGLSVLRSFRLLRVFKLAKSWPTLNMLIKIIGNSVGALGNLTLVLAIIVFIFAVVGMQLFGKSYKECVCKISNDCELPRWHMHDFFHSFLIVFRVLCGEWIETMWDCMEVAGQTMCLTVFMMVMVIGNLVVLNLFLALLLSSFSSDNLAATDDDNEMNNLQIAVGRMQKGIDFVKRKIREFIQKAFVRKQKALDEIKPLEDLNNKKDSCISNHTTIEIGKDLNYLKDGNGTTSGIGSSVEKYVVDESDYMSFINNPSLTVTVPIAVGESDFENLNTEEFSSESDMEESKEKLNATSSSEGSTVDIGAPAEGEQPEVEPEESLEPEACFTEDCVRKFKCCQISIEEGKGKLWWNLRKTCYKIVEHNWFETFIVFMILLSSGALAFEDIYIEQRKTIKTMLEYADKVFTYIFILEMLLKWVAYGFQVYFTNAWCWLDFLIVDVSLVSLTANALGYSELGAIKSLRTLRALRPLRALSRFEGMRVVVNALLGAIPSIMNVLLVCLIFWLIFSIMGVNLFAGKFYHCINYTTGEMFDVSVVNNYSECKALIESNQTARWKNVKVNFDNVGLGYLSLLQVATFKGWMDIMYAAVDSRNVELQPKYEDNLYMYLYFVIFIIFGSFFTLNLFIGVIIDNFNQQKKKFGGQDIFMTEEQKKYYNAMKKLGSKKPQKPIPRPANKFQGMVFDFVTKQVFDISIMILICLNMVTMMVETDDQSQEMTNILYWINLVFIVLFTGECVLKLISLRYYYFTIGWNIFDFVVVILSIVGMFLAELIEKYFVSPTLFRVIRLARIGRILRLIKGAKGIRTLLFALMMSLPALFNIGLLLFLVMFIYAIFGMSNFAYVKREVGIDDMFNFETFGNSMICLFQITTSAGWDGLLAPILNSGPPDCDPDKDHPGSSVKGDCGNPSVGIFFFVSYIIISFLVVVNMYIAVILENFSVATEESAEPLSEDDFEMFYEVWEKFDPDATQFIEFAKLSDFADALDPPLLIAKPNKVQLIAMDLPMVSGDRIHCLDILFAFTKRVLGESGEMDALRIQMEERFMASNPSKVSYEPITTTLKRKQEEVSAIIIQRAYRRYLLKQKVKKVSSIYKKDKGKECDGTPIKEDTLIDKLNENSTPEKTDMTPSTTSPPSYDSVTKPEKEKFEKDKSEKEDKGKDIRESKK
Chain of hNav1.8 (human) (Q9Y5Y9 whole entry): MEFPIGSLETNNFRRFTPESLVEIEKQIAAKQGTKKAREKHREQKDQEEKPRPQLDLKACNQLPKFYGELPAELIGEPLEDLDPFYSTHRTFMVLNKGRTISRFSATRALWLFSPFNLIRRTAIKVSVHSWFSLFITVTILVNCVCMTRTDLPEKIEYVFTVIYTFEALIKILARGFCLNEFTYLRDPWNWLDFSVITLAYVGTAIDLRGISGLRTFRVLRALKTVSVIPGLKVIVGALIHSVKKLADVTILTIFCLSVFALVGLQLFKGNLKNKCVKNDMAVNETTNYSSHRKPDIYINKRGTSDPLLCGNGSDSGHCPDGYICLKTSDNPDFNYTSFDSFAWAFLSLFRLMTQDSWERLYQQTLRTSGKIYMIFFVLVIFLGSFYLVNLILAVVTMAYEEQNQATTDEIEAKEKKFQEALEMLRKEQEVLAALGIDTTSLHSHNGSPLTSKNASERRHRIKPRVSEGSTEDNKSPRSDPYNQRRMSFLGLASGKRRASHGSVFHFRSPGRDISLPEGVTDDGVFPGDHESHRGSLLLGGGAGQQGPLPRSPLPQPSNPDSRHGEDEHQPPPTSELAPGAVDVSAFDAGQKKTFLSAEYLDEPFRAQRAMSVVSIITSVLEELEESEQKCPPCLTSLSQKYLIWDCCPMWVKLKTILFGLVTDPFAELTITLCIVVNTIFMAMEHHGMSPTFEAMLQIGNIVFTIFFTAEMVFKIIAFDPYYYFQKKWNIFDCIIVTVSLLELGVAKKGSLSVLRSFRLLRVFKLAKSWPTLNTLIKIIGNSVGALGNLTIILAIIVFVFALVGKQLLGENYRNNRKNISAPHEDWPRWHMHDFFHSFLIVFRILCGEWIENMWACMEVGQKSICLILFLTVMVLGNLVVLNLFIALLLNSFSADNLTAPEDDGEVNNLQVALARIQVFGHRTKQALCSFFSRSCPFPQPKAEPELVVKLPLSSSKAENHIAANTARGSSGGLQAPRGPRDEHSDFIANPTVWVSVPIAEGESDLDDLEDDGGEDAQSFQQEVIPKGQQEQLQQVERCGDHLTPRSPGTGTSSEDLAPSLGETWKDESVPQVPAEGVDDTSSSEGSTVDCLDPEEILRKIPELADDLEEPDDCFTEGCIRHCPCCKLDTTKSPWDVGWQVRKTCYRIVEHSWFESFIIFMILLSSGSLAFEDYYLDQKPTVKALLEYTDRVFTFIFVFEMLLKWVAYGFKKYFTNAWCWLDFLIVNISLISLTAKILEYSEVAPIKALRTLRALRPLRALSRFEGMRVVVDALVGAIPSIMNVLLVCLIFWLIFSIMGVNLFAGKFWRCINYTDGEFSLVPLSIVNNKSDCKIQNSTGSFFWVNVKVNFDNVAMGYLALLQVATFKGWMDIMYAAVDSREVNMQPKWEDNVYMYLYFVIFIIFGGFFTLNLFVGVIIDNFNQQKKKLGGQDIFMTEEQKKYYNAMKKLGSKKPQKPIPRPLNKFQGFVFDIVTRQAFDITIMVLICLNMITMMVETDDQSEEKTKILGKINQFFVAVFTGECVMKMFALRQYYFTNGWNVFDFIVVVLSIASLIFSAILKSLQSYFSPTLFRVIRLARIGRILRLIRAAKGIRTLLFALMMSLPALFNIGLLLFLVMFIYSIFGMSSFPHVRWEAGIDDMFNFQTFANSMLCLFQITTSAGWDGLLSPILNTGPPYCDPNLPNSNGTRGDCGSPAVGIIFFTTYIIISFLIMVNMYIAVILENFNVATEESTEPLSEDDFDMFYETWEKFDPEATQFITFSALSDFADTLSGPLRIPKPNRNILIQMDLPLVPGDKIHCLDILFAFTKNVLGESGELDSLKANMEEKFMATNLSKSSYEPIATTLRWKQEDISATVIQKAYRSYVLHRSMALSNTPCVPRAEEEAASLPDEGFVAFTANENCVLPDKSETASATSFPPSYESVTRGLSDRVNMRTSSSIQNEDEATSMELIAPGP

With Pnc1a (peptide), the pIC50, automated patch clamp in the assay with hNav1.9 (human) is 5.63 M; in the assay with hNav1.4 (human), 6.8 M; with hNav1.2 (human), 6.9 M; in the assay with hNav1.1 (human), 7.43 M; with hNav1.7 (human), greater than 9.04 M; with hNav1.5 (human) it was 6.01 M. Also, the pIC50, automated patch clamp in the assay with hNav1.6 (human) turned out to be 6.89 M; with hNav1.3 (human), 6.68 M; in the assay with hNav1.8 (human) it was 4.32 M. For the same substance, the pIC50, membrane potential assay stood at 4.95 M with hNav1.4 (human); 5.53 M in the assay with hNav1.2 (human); 4.88 M with hNav1.1 (human); 4.07 M in the assay with hNav1.5 (human); 4.73 M with hNav1.6 (human); 5.09 M with hNav1.3 (human). Moreover, in the assay with hNav1.8 (human), the pIC50, membrane potential assay amounted to 4.58 M.
